{"source": "paper PMC6100724", "about": "“Proteome‐wide analysis of phospho‐regulated PDZ domain interactions” (Molecular Systems Biology, 2018)", "key": {"[1]": {"target": "Scribble PDZ1 (human, aa 719-829) (human) (UniProt Q14160)", "sequence (Q14160 719-829)": "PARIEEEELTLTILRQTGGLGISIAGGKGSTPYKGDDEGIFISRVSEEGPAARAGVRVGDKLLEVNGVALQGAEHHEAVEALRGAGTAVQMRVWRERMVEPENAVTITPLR", "experiment": "ITC; iTC200, 25°C, 20 mM HEPES pH 7.4; protein 50-100 µM in the cell, 0.64-3 mM peptide in the syringe; single-site fit, stoichiometry fixed to 0.8-1.1; triplicate"}, "[2]": {"target": "FITC-…, phosphomimetic (p-6) TANC1 peptide (human)", "experiment": "MST; FITC-labeled peptide fixed at 25-50 nM, DLG1 PDZ2 titrated (1:1 dilution series); 50 mM Tris-HCl pH 7.4, 0.1% Tween-20; KD from thermophoresis and T-Jump signal; n = 3"}, "[3]": {"target": "FITC-HTNETEL, phosphomimetic (p-1) MCC peptide (human)", "experiment": "MST; FITC-labeled peptide fixed at 25-50 nM, DLG1 PDZ2 titrated (1:1 dilution series); 50 mM Tris-HCl pH 7.4, 0.1% Tween-20; KD from thermophoresis and T-Jump signal; n = 3"}, "Scribble PDZ1, 719-829": {"target": "Scribble PDZ1, 719-829 (UniProt Q14160)", "sequence (Q14160 whole entry, looked up, tested part not stated)": "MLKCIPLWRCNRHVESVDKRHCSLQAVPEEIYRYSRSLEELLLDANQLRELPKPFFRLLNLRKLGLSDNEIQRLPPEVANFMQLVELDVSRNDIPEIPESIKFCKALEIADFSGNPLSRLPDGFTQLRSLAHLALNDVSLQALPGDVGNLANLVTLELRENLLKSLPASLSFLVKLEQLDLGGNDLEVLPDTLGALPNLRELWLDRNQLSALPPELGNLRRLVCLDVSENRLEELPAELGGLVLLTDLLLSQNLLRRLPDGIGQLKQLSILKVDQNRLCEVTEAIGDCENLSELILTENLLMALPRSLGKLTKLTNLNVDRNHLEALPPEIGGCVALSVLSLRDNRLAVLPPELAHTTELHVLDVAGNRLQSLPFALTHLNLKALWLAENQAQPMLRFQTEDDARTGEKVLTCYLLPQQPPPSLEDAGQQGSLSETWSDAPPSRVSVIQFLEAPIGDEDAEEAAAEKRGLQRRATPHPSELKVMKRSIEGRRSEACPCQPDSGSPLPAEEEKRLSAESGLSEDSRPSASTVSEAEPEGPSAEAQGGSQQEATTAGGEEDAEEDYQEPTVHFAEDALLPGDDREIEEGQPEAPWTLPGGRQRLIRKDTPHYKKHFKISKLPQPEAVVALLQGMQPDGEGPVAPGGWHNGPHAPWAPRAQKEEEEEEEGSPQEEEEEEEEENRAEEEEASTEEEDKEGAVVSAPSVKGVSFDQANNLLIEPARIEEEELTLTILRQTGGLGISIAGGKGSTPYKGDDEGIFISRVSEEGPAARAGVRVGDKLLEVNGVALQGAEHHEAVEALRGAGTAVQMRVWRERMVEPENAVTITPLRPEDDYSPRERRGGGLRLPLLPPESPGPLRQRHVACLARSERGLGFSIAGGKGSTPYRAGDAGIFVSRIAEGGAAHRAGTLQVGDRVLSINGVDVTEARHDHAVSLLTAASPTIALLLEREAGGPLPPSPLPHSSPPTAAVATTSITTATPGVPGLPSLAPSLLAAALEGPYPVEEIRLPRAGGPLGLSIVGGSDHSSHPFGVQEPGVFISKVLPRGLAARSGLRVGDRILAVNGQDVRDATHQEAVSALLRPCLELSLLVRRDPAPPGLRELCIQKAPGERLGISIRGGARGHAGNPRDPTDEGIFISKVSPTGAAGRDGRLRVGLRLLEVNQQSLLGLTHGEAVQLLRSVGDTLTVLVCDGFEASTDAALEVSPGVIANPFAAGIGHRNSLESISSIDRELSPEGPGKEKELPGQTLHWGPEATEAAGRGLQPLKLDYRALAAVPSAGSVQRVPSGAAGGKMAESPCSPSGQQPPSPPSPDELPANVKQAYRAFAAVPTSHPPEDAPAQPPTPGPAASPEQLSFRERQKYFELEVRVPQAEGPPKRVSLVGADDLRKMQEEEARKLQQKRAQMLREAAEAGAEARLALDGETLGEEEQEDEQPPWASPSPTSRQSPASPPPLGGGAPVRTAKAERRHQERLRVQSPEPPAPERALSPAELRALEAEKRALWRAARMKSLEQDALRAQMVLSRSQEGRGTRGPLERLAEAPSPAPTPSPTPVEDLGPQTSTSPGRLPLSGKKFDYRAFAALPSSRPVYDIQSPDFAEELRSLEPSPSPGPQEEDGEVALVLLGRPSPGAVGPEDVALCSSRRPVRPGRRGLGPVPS", "experiment": "ITC", "settings": "reference: unphosphorylated …; sites S730"}}, "data": [{"substance": "MAPK12 peptide … (unphosphorylated)", "values": [{"measurement": "Kd", "setting": "[1]", "value": 1200, "unit": "nM"}]}, {"substance": "DLG1 PDZ2 (human DLG1 PDZ2 aa 311-407) (from UniProt Q12959 311-407) (domain or fragment)", "values": [{"measurement": "Kd", "setting": "[2]", "value": 5.1, "unit": "µM"}, {"measurement": "Kd", "setting": "[3]", "value": 21, "unit": "µM"}]}, {"substance": "RPS6KA2 C-terminal 9 residues (from UniProt Q15349) MKRLTpSTRL", "values": [{"measurement": "fold change", "setting": "Scribble PDZ1, 719-829", "value": "stronger"}]}]}
